# Experimental data as given in patent US20040175758.
# T1: Q4, synthetic peptide Ac-EKTAGKPILF-OH
# T1 chain: EKTAGKPILF
# Tests used:
# [1] = target: T1, Q4, synthetic peptide Ac-EKTAGKPILF-OH
# [2] = target: Bovine recombinant PrP (Prionics), P10279
# Sequence of Bovine recombinant PrP (Prionics), P10279 (P10279 25-242): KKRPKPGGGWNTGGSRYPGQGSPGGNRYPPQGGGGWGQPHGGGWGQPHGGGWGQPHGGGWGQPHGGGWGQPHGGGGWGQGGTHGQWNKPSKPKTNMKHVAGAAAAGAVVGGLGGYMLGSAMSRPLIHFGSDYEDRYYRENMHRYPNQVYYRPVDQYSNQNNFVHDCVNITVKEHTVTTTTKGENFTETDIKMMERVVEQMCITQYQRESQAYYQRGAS
protein,measurement,setting,value
"Recombinant FLAG-tagged human GPBP (expressed in yeast, FLAG-affinity purified) (protein) MSDNQSWNSSGSEEDPETESGPPVERCGVLSKWTNYIHGWQDRWVVLKNNALSYYKSEDETEYGCRGSICLSKAVITPHDFDECRFDISVNDSVWYLRAQDPDHRQQWIDAIEQHKTESGYGSESSLRRHGSMVSLVSGASGYSATSTSSFKKGHSLREKLAEMETFRDILCRQVDTLQKYFDACADAVSKDELQRDKVVEDDEDDFPTTRSDGDFLHSTNGNKEKLFPHVTPKGINGIDFKGEAITFKATTAGILATLSHCIELMVKREDSWQKRLDKETEKKRRTEEAYKNAMTELKKKSHFGGPDYEEGPNSLINEEEFFDAVEAALDRQDKIEEQSQSEKVRLHWPTSLPSGDAFSSVGTHRFVQKPYSRSSSMSSIDLVSASDDVHRFSSQVEEMVQNHMTYSLQDVGGDANWQLVVEEGEMKVYRREVEENGIVLDPLKATHAVKGVTGHEVCNYFWNVDVRNDWETTIENFHVVETLADNAIIIYQTHKRVWPASQRDVLYLSVIRKIPALTENDPETWIVCNFSVDHDSAPLNNRCVRAKINVAMICQTLVSPPEGNQEISRDNILCKITYVANVNPGGWAPASVLRAVAKREYPKFLKRFTSYVQEKTAGKPILF",GPBP autophosphorylation in vitro,[1],inhibited GPBP autophosphorylation in a more limited manner
same,"in vitro phosphorylation with [γ^32P]-ATP, autoradiography",[2],transferred phosphates to PrP
